Results as given in patent US11667697 (VANDERBILT UNIVERSITY, dated 2023).

Tests used:
VACV B5 protein [1] = biological target: T1, VACV B5 protein (vaccinia virus, UniProt Q01227 20-275); assay: lysate ELISA
VACV B5 protein [2] = biological target: T1, VACV B5 protein; assay: purified antigen ELISA
VACV B5 protein [3] = biological target: T1, VACV B5 protein; assay: cell-based or functional assay
VACV L1 protein [4] = biological target: T2, VACV L1 protein (vaccinia virus, UniProt P07612 1-185); assay: purified antigen ELISA
T2 sequence: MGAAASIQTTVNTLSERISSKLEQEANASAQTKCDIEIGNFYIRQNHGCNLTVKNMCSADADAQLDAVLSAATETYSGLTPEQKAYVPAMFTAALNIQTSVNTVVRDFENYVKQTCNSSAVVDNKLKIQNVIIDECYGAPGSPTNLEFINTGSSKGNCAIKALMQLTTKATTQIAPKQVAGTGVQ

VACV L1 protein [5] = biological target: T2, VACV L1 protein; assay: cell-based or functional assay
VACV A33 protein [6] = biological target: T3, VACV A33 protein (vaccinia virus, UniProt P68617 58-185); assay: lysate ELISA
VACV A33 protein [7] = biological target: T3, VACV A33 protein; assay: purified antigen ELISA
VACV A33 protein [8] = biological target: T3, VACV A33 protein; assay: cell-based or functional assay
VACV D8 protein [9] = biological target: T4, VACV D8 protein (vaccinia virus, UniProt P04195 1-261); assay: lysate ELISA
T4 sequence: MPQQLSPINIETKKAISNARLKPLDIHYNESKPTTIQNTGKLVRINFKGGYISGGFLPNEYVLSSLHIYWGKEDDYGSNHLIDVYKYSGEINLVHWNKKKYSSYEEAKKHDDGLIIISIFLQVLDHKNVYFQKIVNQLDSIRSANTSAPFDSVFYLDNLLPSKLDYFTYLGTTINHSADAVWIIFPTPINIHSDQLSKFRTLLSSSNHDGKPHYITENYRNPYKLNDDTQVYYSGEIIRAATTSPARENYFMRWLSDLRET

VACV D8 protein [10] = biological target: T4, VACV D8 protein; assay: purified antigen ELISA
VACV D8 protein [11] = biological target: T4, VACV D8 protein; assay: cell-based or functional assay
VACV H3 protein = biological target: T5, VACV H3 protein (vaccinia virus, UniProt P07240 1-278); assay: lysate ELISA
T5 sequence: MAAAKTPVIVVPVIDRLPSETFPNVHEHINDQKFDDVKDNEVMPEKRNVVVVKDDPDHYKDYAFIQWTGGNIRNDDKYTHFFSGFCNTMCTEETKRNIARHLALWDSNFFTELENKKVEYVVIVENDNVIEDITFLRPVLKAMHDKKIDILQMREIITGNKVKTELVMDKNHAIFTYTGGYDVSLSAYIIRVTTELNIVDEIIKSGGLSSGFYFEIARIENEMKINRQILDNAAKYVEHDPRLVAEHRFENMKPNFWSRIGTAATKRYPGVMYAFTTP

B1: MPXV-25 (antibody, V domains shown)
V domain 1: QVQLVESGGGVVQPGRSLKISCAASGFTFSDSGLHWVRQAPGKGLECVAFIWYDGSTKYYADSVKGRFTISRDNSRNTLYLQMKSLRAEDTAVYYCARELGYCSGGTCYSMGAFDIWGQGTLVTVSQ
V domain 2: QSVLTQPASVSGSPGQSITISCTGTSSDVGSYNLVSWYQQHPGKAPKLMIYEVSKRPSGVSNRFSGSKSDNTASLTISGLQAEDEADYYCCSYVGSSTSVFGGGTQVTVL
notes: human IgG1, anti-B5
VACV B5 protein [1]
  EC50: 0.066 µg/mL
VACV B5 protein [2]
  EC50: 0.19 µg/mL
VACV B5 protein [3]
  PRNT Emax, VACV EV+C': 77%
  PRNT IC50, VACV EV+C': 0.02 µg/mL

B2: VACV-34 (antibody, V domains shown)
VH: QVQLVESGGGLVQPGRSLRLSCAASGFTFDDYAMHWVRQAPGKGLEWVSGLSWNSGSIGYADSVKGRFTISRDNAKNSLYLQMNSLRAEDTALYYCAKETEKYYYDSSGYDYWGQGTLVTVSS
VL: EIVLTQSPGTLSLSPGERATLSCRASQSVSSIYLAWYQQKPGQAPRLLIYGASSRATGIPDRFSGSGSGTDFTLTISRLEPEDFAVYYCQQYGSRGTFGQGTKLEIK
notes: human IgG1, anti-L1
VACV L1 protein [4]
  EC50: 0.04 µg/mL
VACV L1 protein [5]
  PRNT Emax, VACV MV: 76%
  PRNT Emax, VACV MV+C': 78%
  PRNT IC50, VACV MV: 3.3 µg/mL
  PRNT IC50, VACV MV+C': 0.96 µg/mL

B3: VACV-22 (antibody, V domains shown)
VH: QVQLVESGGGVVQPGRSLRLSCAASGFTFSNSGMHWVRQAPGKGLEWVAVIWFDGTNKYYADSVKGRFTISRDNSKNTLYLQMNSLRAEDTAVYYCARVPCGGDCYSGYLQHWGQGTLVTVSS
VL: AIVMTQSPATLSVSPGERATLSCRASQSVSSTLAWYQQKPGQAPRLLIYGASTKATGIPARFSGSGSGTEFTLTISSLQSEDFAVYYCQHYNNWPPLLTFGGGTKVDIK
notes: human IgG1, anti-A33
VACV A33 protein [6]
  EC50: > 0.008 µg/mL
VACV A33 protein [7]
  EC50: 0.03 µg/mL
VACV A33 protein [8]
  PRNT Emax, VACV EV+C': 87%
  PRNT IC50, VACV EV+C': 9.7 µg/mL

B4: VACV-128 (antibody, V domains shown)
VH: EVQLVQSGAEVKKPGATVKISCKVSGYTFTDYYMHWVQQAPGKGLKWMGLLDPLDGETIYSEKFQGKVTITADTSTDTAYMELSSLRSEDTAVYYCARELTGYLNYWGQGTLVTVSS
VL: DIQMTQSPSSLSASVGDRVTITCRASPGICNYLAWYQHKPGKVPKLLIYAASTLQSGVPSRFTGVGSGTNFTLTINNLPPENVATYYCQKYNSAPHTFGQGTKVDIK
notes: human IgG1, anti-D8
VACV D8 protein [9]
  EC50: 0.3 µg/mL
VACV D8 protein [10]
  EC50: 1.1 µg/mL
VACV D8 protein [11]
  PRNT Emax, VACV MV+C': 86%
  PRNT IC50, VACV MV+C': 0.5 µg/mL

B5: MPXV-76 (antibody, V domains shown)
VH: EVQLVESGGGLVKPGESLKISCAASGFSFNNAWMNWVRQAPGKGLEWVGRIKTHADGGTTDYAAPVTGRFTISRDDSKNTLSLQMSSLKTEDTAVYYCTTSFTFPRRIFAYWGQGTLV
VL: EIVLTQSPATLSLSPGERATLSCRASQSVSSYLAWYQQKPGQAPRLLIYDTSNRATGIPARFSGSGSGTDFTLTISSLEPEDLAVYYCQLRNSWPPTFGPGTKVDIK
notes: human IgG1, anti-H3
VACV H3 protein
  EC50: 0.008 µg/mL

B6: VACV-249 (antibody, V domains shown)
VH: QVQLVESGPGLVKPSQTLSLTCTVSGGSISRGIYYWSWIRQPAGKGLEWIGRIYTSGSTNYNPSLKSRVTISVDTSKNQFSLKLSSVTAADTAVYYCARDGWYGWYLDLWGRGTLVTVSS
VL: EIVMTQSPATLSVSPGERATLSCRASQSVSSDLAWYQQKPGQAPRLLIYGASTRATGIPARFSGSGSGTEFTLTISSLQSEDFAVYYCQQYNNWPGTFGGGTKVDIK
notes: human IgG1, anti-D8
VACV D8 protein [9]
  EC50: 0.3 µg/mL
VACV D8 protein [10]
  EC50: 2.8 µg/mL
VACV D8 protein [11]
  PRNT Emax, VACV MV+C': 70%
  PRNT IC50, VACV MV+C': 0.2 µg/mL

B7: VACV-304 (antibody, V domains shown)
VH: EVQLVESGGGLVQPGGSLRLSCVVSGFTFSNYWMSWVRQAPGKGLEWVANIKQDGSKKYYVDSVTGRFTISRDNAKNSLYLQMNSLRAEDTAVYYCATLNLELAVDAISEALKWGQGTLVTVSS
VL: SYELTQPPSVSVSPGQTARITCSGDALPKQFAYWYQQKPGQAPVVMIYKDSERPSGIPERFSGSSSGTTVTLTISGVQAEDEADYYCQSVDNSGTYEVFGGGTQLTVL
notes: human IgG1, anti-D8
VACV D8 protein [9]
  EC50: 0.04 µg/mL
VACV D8 protein [10]
  EC50: 0.05 µg/mL
VACV D8 protein [11]
  PRNT Emax, VACV MV+C': 69%
  PRNT IC50, VACV MV+C': 0.02 µg/mL
